These results are taken from publication PMC5724825, “Structure-activity studies of Mdm2/Mdm4-binding stapled peptides comprising non-natural amino acids” (PLoS ONE, 2017).

Positions count from the first letter of the chain named. Bridge positions count the residues as written; N and C are the ends. Square brackets hold non-standard residues; d marks the D form. Trp(6-Cl) = N[C@@H](Cc1c[nH]c2cc(Cl)ccc12)C(=O)O; Trp(6-Me) = Cc1ccc2c(C[C@H](N)C(=O)O)c[nH]c2c1; S8 = C=CCCCCCC[C@](C)(N)C(=O)O; S5 = C=CCCC[C@](C)(N)C(=O)O; FAM = carboxyfluorescein

Experiment [1] has as its target Mdm2 (amino acids 6–125) (Homo sapiens, UniProt Q00987). Briefly: Competitive fluorescence anisotropy, Mdm2. It is filed as binding. Details: Mdm2 (amino acids 6–125) was cloned as a GST-fusion protein; GST (N, cleaved yes); made in house; host or cells: Escherichia coli BL21(DE3) pLysS. To be noted: from Table 2. A general note: In fluorescence polarisation assays a small probe gives low polarisation when free and higher when bound to something large.

In experiment [2] the target is T1, Mdm4-L98V (amino acids 1–108) (Homo sapiens, UniProt O15151, L98V).
T1 construct: Mdm4 and Mdm4-L98V (amino acids 1–108) were cloned with C-terminal 6xHIS tags; made in house; host or cells: Escherichia coli BL21(DE3)
T1 sequence (O15151 1-108 L98V): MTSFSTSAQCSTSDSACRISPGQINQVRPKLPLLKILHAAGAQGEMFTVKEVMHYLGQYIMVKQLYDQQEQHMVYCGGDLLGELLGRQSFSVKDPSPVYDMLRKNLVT
Description: Competitive fluorescence anisotropy, Mdm4-L98V. It is filed as binding. Particulars: from Table 2. The method, then: (§1) Mdm4 and Mdm4-L98V (amino acids 1–108) were cloned with C-terminal 6xHIS tags. The constructs were then transformed into Escherichia coli BL21(DE3) (Invitrogen) competent cells. Cells were grown in LB medium at 37°C and induced at OD600 nm of 0.6 at 25°C with 0.25 mM IPTG and at 16°C with 1 mM IPTG for Mdm4-WT and Mdm4-L98V respectively. After overnight induction, the cells were harvested by centrifugation, resuspended in His-binding buffer (50 mM Bis-Tris pH 6.5, 1M NaCl, 20 mM imidazole, 0.5 mM DTT), and lysed by sonication. After centrifugation for 60 mins at 19,000 × g at 4°C, the cell lysate was then applied to a 1 mL HisTrap FF column (GE Healthcare) pre-equilibrated in His-binding buffer, washed and eluted off the column with His-elution buffer (50 mM Bis-Tris pH 6.5, 1M NaCl, 500 mM imidazole, 0.5 mM DTT) with a gradient elution of 35% elution buffer in 5 column volumes, followed by 35% to 100% elution buffer over 80 column volumes. Protein purity as assessed by SDS-PAGE was ~ 90%, and the fractions were pooled and buffer exchanged into 50 mM Bis-Tris pH 6.5, 350 mM NaCl, 1 mM DTT. The proteins were then concentrated using Amicon-Ultra (3 kDa MWCO) concentrator (Millipore).
(§2) Fluorescence anisotropy assays were performed as previously described. Titrations of purified Mdm2/Mdm4 proteins were incubated with 50 nM of carboxyfluorescein (FAM) labelled 12–1 peptide (FAM-[…]-NH2) to initially determine the dissociation constants for the peptide-protein interactions. Apparent Kds of peptides were next determined by competitive fluorescence anisotropy. Titrations of peptides were carried out at constant concentrations of Mdm2/Mdm2-M62A/Mdm4 (150 nM), Mdm4-L98V (250 nM) and labelled peptide (50 nM). Anisotropy measurements were carried out using the Envision Multilabel Reader (PerkinElmer). All experiments were carried out in PBS (2.7 mM KCl, 137 mM NaCl, 10 mM Na2HPO4 and 2 mM KH2PO4, pH 7.4), 4% DMSO and 0.1% Tween-20 buffer. All titrations were carried out in duplicate (3–6 repeats). Curve fitting was carried out using Prism (GraphPad).

Experiment [3] has as its target T2, Mdm4 (amino acids 1–108) (Homo sapiens, UniProt O15151).
T2 construct: Mdm4 and Mdm4-L98V (amino acids 1–108) were cloned with C-terminal 6xHIS tags; made in house; host or cells: Escherichia coli BL21(DE3)
T2 sequence (O15151 1-108): T1 sequence (O15151 1-108 L98V) with V98L
Briefly: Competitive fluorescence anisotropy, Mdm4. It is filed as binding. To be noted: from Table 2. As for the experimental part: as §1, §2

For experiment [4], the target named is T3, Mdm4-L98V (amino acids 1–108) (UniProt O15151 1-108, L98V).
T3 construct: Mdm4 (also known as MdmX), amino acids 1-108, with L98V; also called L98V mutant; source: E. coli BL21(DE3), purified (HisTrap FF)
T3 sequence (looked up): T1 sequence (O15151 1-108 L98V)
Description: fluorescence polarisation; competitive fluorescence anisotropy, apparent Kd; peptides titrated at constant Mdm2/Mdm2-M62A/Mdm4 (150 nM) or Mdm4-L98V (250 nM) and FAM-labelled 12-1 peptide (50 nM); PBS pH 7.4, 4% DMSO, 0.1% Tween-20. To be noted: both partners purified.

Experiment [5] addresses T4, Mdm4 (amino acids 1–108) (UniProt O15151 1-108).
T4 construct: Mdm4 (also known as MdmX), amino acids 1-108; also called Mdm4-WT; MdmX; source: E. coli BL21(DE3), purified (HisTrap FF)
T4 sequence (looked up): T1 sequence (O15151 1-108 L98V) with V98L
The experiment is described as above. Particulars: both partners purified.

The target of experiment [6] is T5, Mdm2-M62A (amino acids 6–125) (UniProt Q00987 6-125, M62A).
T5 construct: Cloned in pGEX-6P-1; source: E. coli BL21(DE3) pLysS, purified (GSTrap, on-column PreScission cleavage, Resource S cation exchange)
Described as above. Particulars: both partners purified.

Experiment [7] concerns the target T3, Mdm4-L98V (amino acids 1–108). The description is as above. To be noted: both partners purified. This is another data set of the same source.
Experiment [8] has as its target T4, Mdm4 (amino acids 1–108). The experiment is described as above. Particulars: both partners purified. The source holds these as a separate data set.
In experiment [9] the target is T6, Mdm2 (amino acids 6–125) (UniProt Q00987 6-125).
T6 construct: Cloned in pGEX-6P-1; also called Mdm2 N-terminal domain; source: E. coli BL21(DE3) pLysS, purified (GSTrap, on-column PreScission cleavage, Resource S cation exchange)
The description is as above. To be noted: both partners purified.

In the case of `CC(=O)N[C@H](C(=O)N[C@@H](CO)C(=O)N[C@@H](Cc1ccccc1)C(=O)N[C@]1(C)CCCCCCC=CCCC[C@@](C)(C(=O)N[C@@H](CO)C(=O)N[C@@H](C)C(=O)N[C@@H](C)C(N)=O)NC(=O)[C@H](CC(C)C)NC(=O)[C@H](CC(C)C)NC(=O)[C@H](C)NC(=O)[C@H](Cc2c[nH]c3cc(Cl)ccc23)NC(=O)[C@H](Cc2ccc(O)cc2)NC(=O)[C@H](CCC(=O)O)NC1=O)[C@@H](C)O` [VIP160], the “Change in affinity for Mdm2 versus M011” value in experiment [1] is reported as “no change in affinity for Mdm2”. For the same molecule, the “Increase in binding affinity to Mdm4-L98V over binding to Mdm4” value in [2] was ~ 2.5 fold. The “Improved binding to Mdm4 versus M011” value in experiment [3] is ~ 1.7 fold.

For `CC(=O)N[C@H](C(=O)N[C@@H](CO)C(=O)N[C@@H](Cc1ccccc1)C(=O)N[C@]1(C)CCCCCCC=CCCC[C@@](C)(C(N)=O)NC(=O)[C@H](CC(C)C)NC(=O)[C@H](CC(C)C)NC(=O)[C@H](C)NC(=O)[C@H](Cc2c[nH]c3ccccc23)NC(=O)[C@H](Cc2ccc(O)cc2)NC(=O)[C@H](CCC(=O)O)NC1=O)[C@@H](C)O` [PM2], in experiment [2], the “Increase in binding affinity to Mdm4-L98V over binding to Mdm4” value is on record as ~ 1.4 fold.

Turning to `C=CCCCCCC[C@@](C)(NC(=O)[C@H](Cc1ccccc1)NC(=O)[C@H](CO)NC(=O)[C@@H](NC(C)=O)[C@@H](C)O)C(=O)N[C@@H](CCC(=O)O)C(=O)N[C@@H](Cc1ccc(O)cc1)C(=O)N[C@@H](Cc1c[nH]c2cc(Cl)ccc12)C(=O)N[C@@H](C)C(=O)N[C@@H](CC(C)C)C(=O)N[C@@H](CC(C)C)C(=O)N[C@@](C)(CCCC=C)C(N)=O` [M011-L], the “Reduced binding to Mdm2 of pre-stapled peptide compared to M011” value in experiment [1] is ~ 20 fold. In addition, the “Reduced binding to Mdm4 of pre-stapled peptide compared to M011” value in experiment [3] is listed as ~ 4 fold.

B1: PM2 stapled peptide (peptide)
chain: TSFXEYWALLL
modifications: not fully specified; N-terminus acetylated; C-terminus amidated; (S)-2-(4′pentenyl) alanine at position 4 and (S)-2-(7′-octenyl) alanine at position 11, fused via olefin metathesis (i, i+7 hydrocarbon linkage)
Take B1: the Kd in experiment [4] turned out to be 72.3 nM; in [5], 101 nM.

Ac-TSF[S5]EY[Trp(6-Me)]ALL[S8]-NH2 (bridges not given here; also: Trp(6-Me) not enantiomerically pure) [M012-L, linear precursor of M012]: the values for the Kd in experiment [4] and in experiment [5] were 165 nM and 411 nM, respectively.

For Ac-TSF[S5]EY[Trp(6-Cl)]ALL[S8]-NH2 (bridges not given here) [M011-L, linear precursor of M011], the Kd in experiment [4] is 594 nM; in experiment [5], 1390 nM.

B2: carboxyfluorescein (FAM) labelled 12–1 peptide (peptide)
peptide: {FAM}-RFMDYWEGL-NH2
notes: 12-1 peptide, tracer of the fluorescence anisotropy assays; also called labelled peptide; source: synthetic peptide
B2: the binding result in experiment [6], in experiment [7], in experiment [8] and in [9] was “binds” throughout.

Regarding Ac-TSF[S5]EY[Trp(6-Me)]ALL[S8]-NH2 (staple 4-11; also: Trp(6-Me) D/L mixture, not separated) [M012 stapled peptide], the Kd in [4] came out at 385 nM.

B3: M011 stapled peptide (peptide)
chain: TSFXEYWALLL
modifications: not fully specified; N-terminus acetylated; C-terminus amidated; L-6-chlorotryptophan at W23 (p53 numbering); (S)-2-(4′pentenyl) alanine at position 4 and (S)-2-(7′-octenyl) alanine at position 11, fused via olefin metathesis (i, i+7 hydrocarbon linkage)
With B3, the values for the Kd in [4] and in [5] were 72.3 nM and 335 nM, respectively.
